Test: soluble fraction after stress (log2 fold change); higher = more stays soluble; pooled small domains, quantitative proteomics
Conditions: stress: pH 4
Summary of the method: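 High-throughput quantitative proteomics was run on pooled custom libraries of small protein domains following pH 4 stress. Fold changes are on a log2 scale; higher values mean more of a domain remained soluble. The fold change in soluble amount is taken as a measure of aggregation propensity.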

Sequence | soluble fraction (log2)
HMNMEPNWLKWAKQLAALAQNGLTYSDNPYEIERYEHIRRIAAEMMAEGFELDTKTILELFPREKG | -1.41
HMNMFDMRKTGARISQLRRAAGLTQAELAEKLGISYQAVSSWERGSNMPDIGKLLDLARILNTTVDALLSA | 0.309
HMNMGKRFKELRKERKFTQQQLADRIGLAPSAISSYESGARYPSYDVLIKYSKIFHVTTDYLLG | 0.148
HMNMKVGPVPANVVPANIKAHVSNNYSKYQIVQMMQNDKGYQVKLSNGTDLYYDKDGNILKTS | 0.0948
HMNMSVGAALRRRRNELGMTLRELADEAELTSGFLSQVENDRVSPSLKSLGRIAEVLRIPLFQLLS | -0.659
HMNMSVVEKVIQQISNPGRDSLIPILQAVQEEEGFISRESVIEIGKALDLPASKIYGVATFYNQFR | -0.543
HMNMTDVLVVNQTVRGGTQITESMLSVKKVDKSSLPDNYLKASLKDEVVGKYFDLGLTSGGVLTKDNISVS | 0.104
HMNMVSGHLQIKKGYYYVVLSYYDNRNKRHVKYVSTGLPEKGNKRKAEAALARVRSEFEPPQE | 0.353
HMNNDFIVKSTDSHKVNLRSQPDTHADIIKRLDDHTIVEKLKTVRKNWYLVQLKDTTTQGYVHKSQLERV | 0.21
HMNNDFVERLRKLFGHASMAEIARRIDVPHATIRNYFQGRLPAPEVLIKLARETGVSLNWLLTGEGKMFA | -0.113
HMNNENELSSIISKVLEENPAEKERFLNGEKKLAGFFMGKIMKATKGTADPKKAAQLLNEIL | 0.271
HMNNFNVVVGKAIKNSFNTRENYITINAGKVLGIKTDMGVINDKGIVGIVEKTSKDFATIQSVLNIKS | 0.22
HMNNGTDGLTTRLRRAILAGQYTFKERLPSERQLAEHFNTSRGTVRKVLQRLTTMNLVEQRAGSGTYVRYG | 0.22
HMNNIGSKIKSAKILNNLDDNQLSEITGIDKLQLRSIQDGQVNPTKMELEIISKALKLPTNYFTK | 0.154
HMNNIIYLIANKLDVGKRLDQFITIRTEFSRQRVINLIEDGYVKLNNKIINLKKYKIKGDEKIEITIPEIR | -1.49
HMNNKVAVKSGYYFEIFNKEEIPTTLAKTKQKVKINNIQYDLYQGMSLDDERKIDDMFGDRMGYSIDDY | -1.9
HMNNKVAVKSGYYFELFDKDEIPATLEKMKQKVKIDNIKYDLYQGTSLEDERKIDTMFGEKMGYSIDDYI | -0.527
HMNNLVTRREVEILGWIKEGKTTSDIAGILSLSPFTVKNHVQNILKKLGARSRSHAVAQAINLGLLH | -0.446
HMNNPISMQKLRQVIRLYGQGKGTKSINSMLGVSRNTIKKYLQVYHSSGINYESFLAMSDKELSAVFLV | 0.226
HMNNQVTFSKFLNEVEDGRVVEVNIQGNNITGVLSDGSKFKTFSPNYPNLVEKLSEKGVSINASPL | 0.153
HMNNTIKFSVDENNSGKRLDVYLTENINHLTRSFLKKLIEKEQVKLNKKVLTSPATKVKTKDQITINIIE | -0.26
HMNNWYESSIKSLVEEYFREHGFSVVFDSSEFWDVFIEKYHKQIPSSQIALFDQVAAEARSYAFNKK | -0.545
HMNPETLTNGSVVKMSKANLSDELIIDMINNSPARFDLSSGALRSLEGEGVSKAVIESMKRATSG | 0.0233

Sequence | soluble fraction (log2)
HMNPETLTNSSVIKMSKANLSDELITDMILNSPVKFDLSAGAIKTLESEGVTPAVLESMKNAASK | 0.0677
HMNPFTHEEINLMSIYNAAGTREGLIAALTEMWGYLDAEETELRELADSALAKLRGITDAEYAALELE | -2.05
HMNPGAYQVKAGEGLIGLSRRYNVPVDVLASVNNLNTTSSLRVGQTITIPTAAQVNRITQQAQ | 0.254
HMNPGHAERGKEIVEVFLRNNGELSMREIAEKSNITITQARRRVNKLLDQGIVEATAPVQSRNRKYRIK | 0.0708
HMNPIEAQIEELKNKDQKTAYQALKHLLAISETRAEVSYYFDRFVALLQDPQSYVRTRGLLLIGA | 0.0533
HMNPLLSAYLAEVERGLQGLTAGRRRLVLRELEAHLLDEAEARGLLTEEDMRALLMEKEPPERLAQEIAQ | -0.925
HMNPMLEPAGEIRLSDGVLLRWQSERLPGDDTVRGPGSLYELGLYRVKVRVSAPQQGVRESSVELAGWRQV | -0.212
HMNPMRYLVVPSQETETWKEYLVSKEWLERKYRIETEGDNRAIPLSNLFPKIVPIELSNLEIIEKEAFS | -1.09
HMNPNEVQIPDLVNKTEDEAEQILKDLKLKLVVKSEEYNENIEKGKIISQDPPYQENYTIKEHSEISIVIS | -0.415
HMNPSRPASKEELLGLFEHLERALDAVTFFRPAEKKPVVVQTLRAMLTKASFTEQDIRTMRGVIAALEN | -0.986
HMNPYQDSILLWKSFDTPLTNEDFMGLSKEELRIARNEIYAAYGRIFTSQDLIDYFNSKPWYQGTTPA | -0.883
HMNQDQDLSRIKGIGPEMVDRLHAQGVETLEQIAAMQMEQLKKLDQQISGNGKAVREQWAEQAKQLLTT | -0.331
HMNQEFRMPNAIKGVELSEENKQQLTQGEKVFLEGMTSAKGSLFDAYVYIDQEKKTLAFDFPEK | -0.792
HMNQKTQMTKQILAESLKKLMLHHSFEKITIKDITDAAGFIRPTFYNHFKDKYDLVEWIFTEEI | -0.336
HMNQKVRQLLSQAQAEMERKNYKQAIKLLDQALAIEPHSGELHFMKGYAWMSMGEFEKALESLYEARNYA | -0.754
HMNQPRQRKVIFELIDERNALERVLMHFAHLEKQVEKIDERKYQVTLYYDKEDETEILIRVLSFG | -1.16
HMNQTEKSKITHNELLKAAHSLFIEQGFNHTTITDIVTRAGYSTGIFYKHYKTKTDILVELWTNYIE | -1.28
HMNQWQLLSEDGAILGTRVLYHPHETEQPFTRSLSGVKIPAHVQSVTIRAGDLVHGFGGREIQMQLPPIV | 0.0124
HMNREENIQIGRDLLERELRKQGMDLQENLRQEVLLDGAKKLGFNNTDDLLAAIGDLKVTPAMFIGKIA | -0.168
HMNREMLVHAIGQLKEKYASALELKYWHGFTEREIAAFLNISEKAANSRLVRGRVMLRKLLE | 0.139
HMNREYELTAEESGQRLDKYLAGEMTDLSRSRIKELVQAGEILVNGKKSKVSYKVQKDDLIQVIVLPLE | -0.0759
HMNRITEFVVPEGTKKIRADKLLAESFPDHSRSDFHRAFDASLVRLEGQPISKNRKISQGDVLVFEMPEI | -0.468
HMNRPQDLGEPYDGQFREHPEAWAFYAAQSPSYRRSASWWVLGAKQEVTRQRRLAALIDASAQGTRIPALT | -0.0491

Sequence | soluble fraction (log2)
HMNRREFQFSEGSSNKFWSIELRDQSFIVHYGKIGTNGQAQEKTFATADAAKKEHDKLIAEKTKKGYVEVQ | -0.691
HMNRTKYYDFEGHPAKVVRLTLPVYLNKIGDEVVVYDSQKFAREASPISESQYNRMVAEIFQP | -0.0162
HMNSEAVQNVIDKISALPDDITAKAKSQIEEARAAYEALSDSEKARVTNYSTLVAAEKKLASVVKD | 0.121
HMNSEERVLDTASKWLVKLDEGLDESEAQVLKVWLATPLHRDTFLEMVALWDKMSVLNELADIV | -1.94
HMNSISDSELKALIKNNYLKFLKRIASDEEIEYHFNQIKNKTILLDELDSIFQNSQEYKDLVEHNNKIQN | -0.809
HMNSKQELAYQTIRARIVDGSYGPGYRIVIDEVARELGVSPIPVREAVRRLEAEGLITYTRHAGARVVA | -0.273
HMNSLQLGSRGPTVSALQAKLNTMLVPSPRLVADGSFGPKTAQAVKAFQQMKRLVADGVVGPKTAAALGLS | 0.281
HMNSLQNNLKQARTRVGLTQGVLASQAGISRQAYSTLESGSANPSTEVALRLAQALQERVELLFYLPER | -0.609
HMNSNKFANAAAVAVAEKPADSYNPLFIYGPSGVGKTHLLYAIANEIHKHHPDYNIVYIKGDQFTNELIN | 0.201
HMNSNLSLTSYEEKIFFLLEKEKNLDELILESSFKAGEILSILMDLEIKHAIVSIPGGKYRRK | -1.32
HMNSNQESFENWLSANSWYNKDRAMRVFADSLGQELRNSGVSFEKALTQISAEVRKEFSHKFQ | -0.213
HMNSNSLSFSKFMQEVEAGRVIEVQIKGNDIQGELSDGSKFKTYSPNYPNLVDKLSENKVSIVATPL | 0.105
HMNSNTIIFSQFLSEVDNGRVTQVQIQGNNIKGTLSNGKDFITYAPNDPNLIEKLTSKGVSISASPID | 0.217
HMNSNTIIINDIMTKIGKEVKNFTEIYSIILKALAEHGEEYVRTNTEYALKNFTGNFDIFLEQLLLK | -0.219
HMNSRAERKEAAKEAIRNLLREGMTFEELTGPWLEKRFAEEPFNRGARSWQMLISEIKEEPEFQHL | -0.916
HMNSRQPEEEALFELLAKNPYSDEQLEEIRIAIGSGISYKDVLVIADIKNTAKQMKKLRLKFTKDTG | 0.118
HMNSTEQQTERFLATLTSLGGNAGNQRLQEALGWQGSTYQRIKQHLLDEGRIRTGRGRGGSVALSEATAT | ≥ 0.43
HMNSTGVYQRPDGFWEYRFTLSINGKKLPRRKSTDLMGNKLKTKREAIKAREEAIIALRTEKTI | 0.4
HMNSTVKVPNVVGMSVPQAKALLEQNHLLVQGIREVSTDKAPAGIVINQLPYSDAEVKEERHIYLTVSKGK | 0.0926
HMNSVKSPMPGTILGLKVSVGDTVKVGDELLVLESMKMENMINSPIDGTVSKILISEGDSVQHGQELII | 0.102
HMNSVSARRSAAITAISTGRIHSQEDLVQALKKAGYPVTQATASRDIEEIGAVRIRNQKGEMVYAIS | 0.321
HMNTEEITYSRFQQMLEAGEISQVSIESNRILILPSEETGIEKVLYTGIINDPGLVERLNSAGVEFRAPIE | -1.16

— the domain aggregation screens of Martell et al. (2025)
